Numbered stars: 1 amine (or outer) side, 2 acyl side, 3 side chain; on linkers, the order of the positions; unused ones are H or OH. Bridge positions count the residues as written; N and C are the ends. Side chains are listed from the residue outwards. Ends that are not written are not given here. * marks the point of attachment. C20 diacid = O=C(O)CCCCCCCCCCCCCCCCCCC(=O)*; γGlu = O=C(O)[C@H](CCC(=O)[*:2])N[*:1]

This test deals with T1, human amylin receptor (amylin 3(a) receptor: human calcitonin receptor with RAMP-3) (human, UniProt P30988 25-474; O60896 24-148).
T1 construct: whole, on cells; also called hAmylin-R; hAmylinR
T1 sequence (looked up) 1: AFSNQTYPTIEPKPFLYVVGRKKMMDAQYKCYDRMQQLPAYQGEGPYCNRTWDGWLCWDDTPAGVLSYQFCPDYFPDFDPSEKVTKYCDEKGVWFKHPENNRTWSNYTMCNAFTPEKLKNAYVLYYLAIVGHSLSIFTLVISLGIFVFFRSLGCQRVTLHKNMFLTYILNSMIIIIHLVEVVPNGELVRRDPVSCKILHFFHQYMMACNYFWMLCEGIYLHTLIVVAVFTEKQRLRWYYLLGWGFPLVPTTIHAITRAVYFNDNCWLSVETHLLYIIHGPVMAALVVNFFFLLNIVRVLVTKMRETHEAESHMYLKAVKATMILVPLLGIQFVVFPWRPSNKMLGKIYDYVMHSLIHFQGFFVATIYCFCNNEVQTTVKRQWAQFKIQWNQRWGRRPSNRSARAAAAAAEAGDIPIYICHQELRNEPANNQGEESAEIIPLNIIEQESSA
T1 sequence (looked up) 2: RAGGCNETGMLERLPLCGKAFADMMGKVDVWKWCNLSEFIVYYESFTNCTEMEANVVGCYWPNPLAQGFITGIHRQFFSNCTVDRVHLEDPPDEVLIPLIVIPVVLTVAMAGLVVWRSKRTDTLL
In words: SPA displacement of 125I-rat amylin, hAmylin 3(a) receptor membranes. The method in brief:
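Membranes from BHK Amylin 3(a)/CRE-luc cells (35 ng/μL final) were mixed with SPA beads and test compounds in 50 mM Hepes pH 7.4 with 1 mM CaCl2, 5 mM MgCl₂, 0.1% OA and 0.02% Tween20. Incubation ran 120 min at 25° C with shaking; IC₅₀ came from one-site competition fitting.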

B1: N^ε1-[(4S)-4-carboxy-4-(19-carboxynonadecanoylamino)butanoyl]-[Arg17,Pro21,Pro27,His34]-h-amylin (peptide)
peptide: K([γGlu-C20 diacid])CNTATCATQRLANFLRHSSPNFGAIPSSTNVGHNTY-NH2
modifications: disulfide 2-7; N-terminus assumed
SMILES: CC[C@H](C)[C@H](NC(=O)[C@H](C)NC(=O)CNC(=O)[C@H](Cc1ccccc1)NC(=O)[C@H](CC(N)=O)NC(=O)[C@@H]1CCCN1C(=O)[C@H](CO)NC(=O)[C@H](CO)NC(=O)[C@H](Cc1c[nH]cn1)NC(=O)[C@H](CCCNC(=N)N)NC(=O)[C@H](CC(C)C)NC(=O)[C@H](Cc1ccccc1)NC(=O)[C@H](CC(N)=O)NC(=O)[C@H](C)NC(=O)[C@H](CC(C)C)NC(=O)[C@H](CCCNC(=N)N)NC(=O)[C@H](CCC(N)=O)NC(=O)[C@@H](NC(=O)[C@H](C)NC(=O)[C@@H]1CSSC[C@H](NC(=O)[C@@H](N)CCCCNC(=O)CC[C@H](NC(=O)CCCCCCCCCCCCCCCCCCC(=O)O)C(=O)O)C(=O)N[C@@H](CC(N)=O)C(=O)N[C@@H]([C@@H](C)O)C(=O)N[C@@H](C)C(=O)N[C@@H]([C@@H](C)O)C(=O)N1)[C@@H](C)O)C(=O)N1CCC[C@H]1C(=O)N[C@@H](CO)C(=O)N[C@@H](CO)C(=O)N[C@H](C(=O)N[C@@H](CC(N)=O)C(=O)N[C@H](C(=O)NCC(=O)N[C@@H](Cc1c[nH]cn1)C(=O)N[C@@H](CC(N)=O)C(=O)N[C@H](C(=O)N[C@@H](Cc1ccc(O)cc1)C(N)=O)[C@@H](C)O)C(C)C)[C@@H](C)O
notes: also called 77; compound 77
On to B1, for which the half-maximal inhibitory concentration (IC50) (in general, the concentration at which inhibition is half-maximal) was found to be 0.428 nM.

B2: N^ε1-[(4S)-4-carboxy-4-(19-carboxynonadecanoylamino)butanoyl]-[Arg17,Pro21,Pro27,His35]-h-amylin (peptide)
peptide: K([γGlu-C20 diacid])CNTATCATQRLANFLRHSSPNFGAIPSSTNVGSHTY-NH2
modifications: disulfide 2-7; N-terminus assumed
SMILES: CC[C@H](C)[C@H](NC(=O)[C@H](C)NC(=O)CNC(=O)[C@H](Cc1ccccc1)NC(=O)[C@H](CC(N)=O)NC(=O)[C@@H]1CCCN1C(=O)[C@H](CO)NC(=O)[C@H](CO)NC(=O)[C@H](Cc1c[nH]cn1)NC(=O)[C@H](CCCNC(=N)N)NC(=O)[C@H](CC(C)C)NC(=O)[C@H](Cc1ccccc1)NC(=O)[C@H](CC(N)=O)NC(=O)[C@H](C)NC(=O)[C@H](CC(C)C)NC(=O)[C@H](CCCNC(=N)N)NC(=O)[C@H](CCC(N)=O)NC(=O)[C@@H](NC(=O)[C@H](C)NC(=O)[C@@H]1CSSC[C@H](NC(=O)[C@@H](N)CCCCNC(=O)CC[C@H](NC(=O)CCCCCCCCCCCCCCCCCCC(=O)O)C(=O)O)C(=O)N[C@@H](CC(N)=O)C(=O)N[C@@H]([C@@H](C)O)C(=O)N[C@@H](C)C(=O)N[C@@H]([C@@H](C)O)C(=O)N1)[C@@H](C)O)C(=O)N1CCC[C@H]1C(=O)N[C@@H](CO)C(=O)N[C@@H](CO)C(=O)N[C@H](C(=O)N[C@@H](CC(N)=O)C(=O)N[C@H](C(=O)NCC(=O)N[C@@H](CO)C(=O)N[C@@H](Cc1c[nH]cn1)C(=O)N[C@H](C(=O)N[C@@H](Cc1ccc(O)cc1)C(N)=O)[C@@H](C)O)C(C)C)[C@@H](C)O
notes: also called 60; compound 60
As for B2, the IC50 worked out at 0.695 nM.

The values above are taken from patent US20140087995A1 (published 2014).
